B1: recombinant human αB-crystallin (natural protein, UniProt P02511 1-175, looked up)
chain: MDIAIHHPWIRRPFFPFHSPSRLFDQFFGEHLLESDLFPTSTSLSPFYLRPPSFLRAPSWFDTGLSEMRLEKDRFSVNLDVKHFSPEELKVKVLGDVIEVHGKHEERQDEHGFISREFHRKYRIPADVDPLTITSSLSSDGVLTVNGPRKQVSGPERTIPITREEKPAVTAAPKK

How the values were obtained:
αA66-80 peptide = molecular target: T1, αA66-80 peptide (human); assay: bis-ANS fluorescence
T1 peptide: SDRDKFVIFLDVKHF

cross-linking = molecular target: the molecule itself; assay: cross-linking
[1] = molecular target: B1; assay: cross-linking

EEKPAVTAAPK [αB-crystallin C-terminal peptide 164–174]
binding result (αA66-80 peptide): binds

B1
binding result (cross-linking): binds

SDRDKFVIFLDVKHFK (biotin on the added C-terminal lysine (SDRDKFVIFLDVKHFK-Biotin)) [C-terminal biotinylated αA66-80]
binding result [1]: binds
